± gives the uncertainty stated by the source.
B1: Lysine-specific demethylase 2B, residues 656 to 722; numbered along this chain, Q8NHM5 (parent)
chain: LPHTAVCLVCGEAGKEDTVEEEEGKFNLMLMECSICNEIIHPGCLKIKESEGVVNDELPNCWECPKC

Variants of: B1
Assay: abundance fitness (aPCA) (normalised: wild type 0, dead -1); higher = more abundant; growth selection in yeast, the domain comes from the species named
Details: Homo sapiens

| Variant | abundance fitness |
| --- | --- |
| P42D | -0.644 ± 0.22 |
| P42R | -0.134 ± 0.063 |
| P42A | -0.34 ± 0.09 |
| P42K | -0.285 ± 0.15 |
| P42E | -0.537 ± 0.093 |
| P42T | -0.568 ± 0.18 |
| P42M | -0.52 ± 0.22 |
| P42G | -0.302 ± 0.076 |
| P42V | -0.423 ± 0.13 |
| P42H | 0.019 ± 0.18 |
| P42F | -0.272 ± 0.19 |
| P42Y | 0.122 ± 0.27 |
| P42C | -0.355 ± 0.21 |
| P42Q | -0.189 ± 0.23 |
| P42L | -0.317 ± 0.079 |
| P42W | -0.32 ± 0.1 |
| S50D | 0.085 ± 0.11 |
| S50Y | 0.312 ± 0.15 |
| S50C | 0.078 ± 0.084 |
| S50I | -0.036 ± 0.17 |
| S50W | -0.156 ± 0.13 |
| S50F | 0.039 ± 0.2 |
| S50Q | -0.111 ± 0.13 |
| S50G | 0.169 ± 0.073 |

| Variant | abundance fitness |
| --- | --- |
| S50M | -0.155 ± 0.18 |
| S50R | -0.128 ± 0.08 |
| S50K | -0.025 ± 0.075 |
| S50E | 0.034 ± 0.13 |
| S50P | 0.087 ± 0.13 |
| S50H | -0.208 ± 0.16 |
| S50V | 0.039 ± 0.068 |
| L30Q | -0.337 ± 0.23 |
| L30K | -0.034 ± 0.23 |
| L30W | -0.309 ± 0.093 |
| L30T | -0.212 ± 0.098 |
| L30N | -0.152 ± 0.16 |
| L30R | -0.196 ± 0.062 |
| L30M | -0.373 ± 0.14 |
| L30P | -0.435 ± 0.14 |
| L30S | -0.452 ± 0.078 |
| G43M | 0.113 ± 0.099 |
| G43F | -0.558 ± 0.16 |
| G43P | -0.526 ± 0.15 |
| G43Y | -0.02 ± 0.2 |
| G43C | -0.395 ± 0.12 |
| G43Q | -0.383 ± 0.13 |
| G43R | -0.173 ± 0.065 |
| G43T | -0.375 ± 0.11 |

| Variant | abundance fitness |
| --- | --- |
| G43W | -0.52 ± 0.12 |
| G43H | -0.433 ± 0.32 |
| G43S | -0.364 ± 0.18 |
| G43L | -0.536 ± 0.088 |
| G43A | 0.085 ± 0.1 |
| G43D | -0.064 ± 0.2 |
| G43K | -0.219 ± 0.13 |
| G43N | -0.195 ± 0.22 |
| G43V | -0.302 ± 0.12 |
| K46I | -0.311 ± 0.15 |
| K46E | 0.206 ± 0.14 |
| K46H | -0.532 ± 0.28 |
| K46Q | 0.195 ± 0.12 |
| K46R | 0.016 ± 0.064 |
| K46A | -0.01 ± 0.1 |
| K46G | 0.205 ± 0.078 |
| K46Y | 0.042 ± 0.43 |
| K46L | 0.007 ± 0.08 |
| K46S | 0.206 ± 0.081 |
| K46D | 0.224 ± 0.18 |
| K46W | -0.148 ± 0.098 |
| K46V | -0.058 ± 0.07 |
| K46T | 0.211 ± 0.19 |
| K46P | 0.077 ± 0.089 |

| Variant | abundance fitness |
| --- | --- |
| H41S | -1.03 ± 0.27 |
| H41A | -0.931 ± 0.22 |
| H41Q | -0.952 ± 0.21 |
| H41T | -0.784 ± 0.16 |
| H41W | -0.913 ± 0.14 |
| H41Y | -0.912 ± 0.33 |
| H41R | -0.943 ± 0.12 |
| H41K | -0.278 ± 0.16 |
| H41G | -0.903 ± 0.12 |
| H41L | -0.925 ± 0.14 |
| H41C | -0.767 ± 0.25 |
| H41E | -0.997 ± 0.18 |
| H41V | -1.21 ± 0.44 |
| E51H | 0.097 ± 0.1 |
| E51Q | -0.239 ± 0.18 |
| E51C | 0.056 ± 0.16 |
| E51P | -0.328 ± 0.15 |
| E51M | -0.19 ± 0.093 |
| E51L | -0.385 ± 0.11 |
| E51K | -0.027 ± 0.19 |
| E51G | -0.197 ± 0.096 |
| E51R | -0.001 ± 0.066 |
| E51A | -0.044 ± 0.073 |
| E32H | 0.103 ± 0.12 |

| Variant | abundance fitness |
| --- | --- |
| E32M | 0.142 ± 0.1 |
| E32F | -0.205 ± 0.12 |
| E32T | 0.02 ± 0.12 |
| E32A | -0.222 ± 0.092 |
| E32R | 0.201 ± 0.06 |
| E32W | -0.247 ± 0.09 |
| E32G | -0.063 ± 0.077 |
| E32I | -0.072 ± 0.19 |
| E32S | 0.044 ± 0.088 |
| E32D | -0.324 ± 0.15 |
| E32P | -0.53 ± 0.22 |
| E32V | -0.287 ± 0.098 |
| E32C | 0.088 ± 0.099 |
| E32K | 0.156 ± 0.11 |
| E32Y | -0.668 ± 0.22 |
| E32Q | -0.17 ± 0.15 |
| E32L | 0.005 ± 0.065 |
| C44P | -0.722 ± 0.12 |
| C44N | -0.815 ± 0.46 |
| C44W | -0.8 ± 0.16 |
| C44L | -0.956 ± 0.16 |
| C44Q | -0.79 ± 0.12 |
| C44G | -0.764 ± 0.12 |
| C44R | -0.709 ± 0.11 |

| Variant | abundance fitness |
| --- | --- |
| C44S | -0.843 ± 0.14 |
| C44A | -0.779 ± 0.18 |
| C44M | -0.735 ± 0.22 |
| C44T | -0.982 ± 0.19 |
| C44Y | -0.897 ± 0.44 |
| C44V | -0.906 ± 0.15 |
| K48Y | 0.011 ± 0.25 |
| K48N | 0.222 ± 0.19 |
| K48P | -0.159 ± 0.19 |
| K48C | -0.179 ± 0.15 |
| K48F | -0.078 ± 0.19 |
| K48W | -0.119 ± 0.092 |
| K48M | 0.157 ± 0.11 |
| K48Q | 0.108 ± 0.11 |
| K48V | -0.261 ± 0.12 |
| K48S | -0.155 ± 0.089 |
| K48E | 0.152 ± 0.1 |
| K48G | -0.056 ± 0.067 |
| K48R | -0.168 ± 0.085 |
| I35P | -1.07 ± 0.3 |
| I35R | -0.022 ± 0.08 |
| I35Y | -0.548 ± 0.28 |
| I35L | 0.016 ± 0.094 |
| I35E | -0.399 ± 0.22 |

| Variant | abundance fitness |
| --- | --- |
| I35V | 0.037 ± 0.096 |
| I35Q | -0.149 ± 0.091 |
| I35S | -0.364 ± 0.19 |
| I35N | -0.295 ± 0.23 |
| I35D | -0.323 ± 0.2 |
| I35W | -0.643 ± 0.12 |
| I35T | 0.147 ± 0.15 |
| I35K | -0.057 ± 0.12 |
| I35C | -0.119 ± 0.21 |
| I35M | 0.023 ± 0.13 |
| I35G | -0.14 ± 0.11 |
| E49Y | -0.187 ± 0.2 |
| E49N | 0.262 ± 0.45 |
| E49G | 0.008 ± 0.051 |
| E49K | -0.123 ± 0.13 |
| E49M | -0.005 ± 0.18 |
| E49I | -0.244 ± 0.19 |
| E49P | 0.024 ± 0.094 |
| E49R | -0.103 ± 0.053 |
| E49A | 0.104 ± 0.082 |
| E49L | -0.077 ± 0.075 |
| E49Q | -0.079 ± 0.073 |
| E49C | -0.039 ± 0.11 |

Source: the Human Domainome abundance scans (Beltran et al. 2025)
